Measurements: patent publication US20240092913A1 (HANALL BIOPHARMA, published 2024)

B1: HL161D antibody (antibody, human IgG1, V domains shown)
VH: QLQLQESGPGLVKPSETLSLTCTVSGGSISSSSYYWGWIRQPPGKGLEWIGNIYYSGSTYYNPSLMSRVTISVDTSKNQFSLKLSSVTAADTAVYYCARQLSYNWNDRLFDYWGQGTLVTVSS
VL: SYELTQPLSVSVALGQTARITCGGNNIGSKNVHWYQQKPGQAPVLVIYRDSNRPSGIPERFSGSNSGNTATLTISRAQAGDEADYYCQVWDSSTVVFGGGTKLTVLGQPKAAPSVTL
notes: the VL entry runs a few residues into the constant region
B2: HL161C antibody (antibody, human IgG1, V domains shown)
VH: QVQLVQSGAEVKKPGASVKVSCKASGYTFTGCYMHWVRQAPGQGLEWMGRINPNSGGTNYAQKFQGRVTMTRDTSISTAYMDLSRLRSDDTAVYYCARDYSGWSFDYWGQGTLVTVSS
VL: DIQMTQSPSSLSASVGDRVTITCRASQGISNYLAWFQQKPGKAPKSLIYAASSLQSGVPSKFSGSGSGTDFTLTISSLQSEDFATYYCQQYDSYPPTFGGGTKVEIKRTVAAPSVFI
B3: HL161A antibody (antibody, human IgG1, V domains shown)
VH: EVQLLESGGGLVQPGGSLRLSCAASEFTFGSCVMTWVRQAPGKGLEWVSVISGSGGSTYYADSVKGRFTISRDNSKNTLYLQMNSLRAEDTAVYYCAKTPWWLRSPFFDYWGQGTLVTVSS
VL: SYVLTQPPSVSVAPGQTARITCGGNNIGSTSVHWYQQKPGQAPVLVVHDDSDRPSGIPERFSGSNSGNTATLTISRVEAGDEADYYCQVRDSSSDHVIFGGGTKLTVLGQPKAAPSVTL
B4: HL161B antibody (antibody, V domains shown)
VH: QLLLQESGPGLVKPSETLSLTCTVSGGSLSSSFSYWVWIRQPPGKGLEWIGTIYYSGNTYYNPSLKSRLTISVDTSKNHFSLNLSSVTAADTAVYYCARRAGILTGYLDSWGQGTLVTVSS
VL: SYVLTQSPSVSVAPGQTARITCGGNNIGSKSVHWYQQKPGQAPVLVVYDDSDRPSGIPERFSASNSGNTATLTISRVEAGDEADYYCQVWDSSSDHVVFGGGTKLTVLGQPKAAPSVTL
notes: as for B1

Assays:
water-soluble hFcRn [1] = molecular target: T1, water-soluble hFcRn (human, UniProt P55899 24-297; P61769 21-119, limits assumed); assay: SPR (Proteon XPR36, GLC chip), shFcRn immobilised, antibody as analyte, pH 6.0, 1:1 Langmuir, mean of six runs
T1 construct: also called shFcRn; human FcRn
Protocol: (§1) In kinetic analysis, a 1:1 Langmuir binding model was used, the analysis was repeated six times at each of pH 6.0 and pH 7.4, and the mean KD value was calculated. […], the chip was activated under the conditions of EDAC/NHS 0.5×, 30 μL/min and 300 sec. For immobilization, shFcRn was diluted in acetate buffer (pH 5.5) to concentrations of 2 μg/mL and 250 μL, and the dilution was allowed to flow on the chip at a rate of 30 μL/min. When an immobilization level of 200-300 RU was reached, the reaction was stopped. Then, deactivation was performed using ethanolamine at a rate of 30 μL/min for 300 sec. […] Sample dilution was performed using 1× PBST (pH 7.4) or 1× PBST (pH 6.0) at each pH. For sample analysis, association was performed at 50 μL/min for 200 sec, and the dissociation step was performed at 50 μL/min for 600 sec, after which regeneration was performed using glycine buffer (pH 2.5) at 100 μL/min for 18 sec. The kinetic analysis of each sample was repeated six times, and then the mean antigen binding affinity (KD) was measured.

water-soluble hFcRn [2] = molecular target: T1, water-soluble hFcRn; assay: SPR (Proteon XPR36, GLC chip), shFcRn immobilised, antibody as analyte, pH 7.4, 1:1 Langmuir, mean of six runs
Protocol: as §1

[3] = molecular target: T2, human FcRn on human FcRn-expressing stable HEK293 cells (human, UniProt P55899 24-365; P61769 21-119); assay: FACS on human FcRn-expressing stable HEK293 cells, pH 7.4, 0.11-250 nM antibody, 4 parameter logistic regression of MFI
T2 construct: also called hFcRn-expressing HEK293 cells; human FcRn-overexpressing HEK293 cells
Protocol: The plate was mounted in a rotator at 4° C. and rotated at an angle of 15° and 10 rpm for 90 minutes. […] The FACS measurement was performed under the following conditions: FS 108 volts, SS 426 volts, FL1 324 volts, FL2 300 volts. These cells were analyzed by FACS using BD FACSDiva™ v6.1.3 software (BD Bioscience).

[4] = molecular target: T2, human FcRn on human FcRn-expressing …; assay: FACS competition on human FcRn-overexpressing HEK293 cells, pH 6.0, blocking of Alexa488-hIgG1, antibody 0.01-200 nM, 4-parameter logistic regression
Protocol: Each antibody sample was diluted to 400 nM, and then diluted by 4-fold serial dilution in a 96-well v-bottom plate. 50 μL of the sample diluted to a final concentration of 200 nM to 0.01 nM was added to each well. […] Finally, 40 μL of cells diluted to a cell concentration of 2.5×10⁶ cells/mL were added to each well and suspended. The plate was mounted in a rotator at 4° C. and rotated at an angle of 15° and 10 rpm for 90 minutes. After completion of the reaction, the plate was taken out of the rotator, and centrifuged at 2000 rpm for 10 minutes to remove the supernatant. 100 μL of reaction buffer was added to each well to dissolve the cell pellets, and the plate was transferred into a blue test tube. Then, 200 μL of reaction buffer was added to each well, and measurement was performed in FACS. The FACS measurement was performed under the following conditions: FS 108 volts, SS 426 volts, FL1 324 volts, FL2 300 volts. These cells were analyzed by FACS using BD FACSDiva™ v6.1.3 software (BD Bioscience). The results were expressed as mean fluorescence intensity (MFI). The MFI of the test group was processed after subtracting the measured MFI value of the cells alone (background signal).

T2 sequence (P55899 24-365 limits assumed, chain 1 of 2): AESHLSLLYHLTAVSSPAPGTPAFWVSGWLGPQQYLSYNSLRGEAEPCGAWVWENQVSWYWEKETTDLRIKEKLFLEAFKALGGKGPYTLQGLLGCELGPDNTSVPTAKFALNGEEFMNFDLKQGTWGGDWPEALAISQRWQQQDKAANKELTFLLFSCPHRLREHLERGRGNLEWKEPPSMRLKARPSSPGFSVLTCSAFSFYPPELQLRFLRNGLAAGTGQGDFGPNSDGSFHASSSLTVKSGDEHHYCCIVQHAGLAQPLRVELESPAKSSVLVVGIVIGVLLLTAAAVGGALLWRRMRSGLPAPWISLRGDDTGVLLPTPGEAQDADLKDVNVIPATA
T2 sequence (P61769 21-119 limits assumed, chain 2 of 2): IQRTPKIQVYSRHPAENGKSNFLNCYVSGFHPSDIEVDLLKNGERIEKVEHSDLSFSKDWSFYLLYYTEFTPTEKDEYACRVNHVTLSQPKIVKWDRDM
T1 sequence (P55899 24-297 limits assumed, chain 1 of 2): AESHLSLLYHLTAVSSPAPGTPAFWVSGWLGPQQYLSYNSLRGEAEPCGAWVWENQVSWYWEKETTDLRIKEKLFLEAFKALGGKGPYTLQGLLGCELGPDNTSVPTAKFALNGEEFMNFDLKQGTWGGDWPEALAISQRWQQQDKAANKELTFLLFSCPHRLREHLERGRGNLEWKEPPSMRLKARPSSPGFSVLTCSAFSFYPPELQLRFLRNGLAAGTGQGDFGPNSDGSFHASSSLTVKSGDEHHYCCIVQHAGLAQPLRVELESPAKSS
T1 sequence (P61769 21-119 limits assumed, chain 2 of 2): as the sequence (P61769 21-119 limits assumed, chain 2 of 2) above

| Binder | Kd (water-soluble hFcRn [1]) [nM] | koff (water-soluble hFcRn [1]) [s⁻¹] | kon (water-soluble hFcRn [1]) [M⁻¹ s⁻¹] | Kd (water-soluble hFcRn [2]) [nM] | koff (water-soluble hFcRn [2]) [s⁻¹] | kon (water-soluble hFcRn [2]) [M⁻¹ s⁻¹] | EC50 [3] [nM] | IC50 [4] [nM] |
| --- | --- | --- | --- | --- | --- | --- | --- | --- |
| B1 | 1.43 | 0.00138 | 970000 | 1.78 | 0.00124 | 699000 | – | – |
| B2 | 0.191 | 0.000332 | 1.74e+06 | 0.232 | 0.000316 | 1.36e+06 | – | – |
| B3 | 0.18 | 0.000326 | 1.81e+06 | 0.247 | 0.000327 | 1.32e+06 | 2.46 | 0.92 |
| B4 | 0.807 | 0.000735 | 912000 | 1.76 | 0.00125 | 710000 | 1.2 | 2.24 |
